The text below walks through data of article PMC8297783, “Autocrine signaling by receptor tyrosine kinases in urothelial carcinoma of the bladder” (PLoS ONE, 2021).

The subject of the assay is FL3 cells. Nature of the assay: cell proliferation assay, FL3 cells. The settings on record: 1% FBS, 6 d, added MST1 alone 5 nM, relative to untreated cells. The assay is classed as cell-based, Human.

B1: MST1: exogenous cognate ligand of MST1R, added to cells at 5 nM (protein, UniProt P26927 19-711, looked up)
Hepatocyte growth factor-like …: QRSPLNDFQVLRGTELQHLLHAVVPGPWQEDVADAEECAGRCGPLMDCRAFHYNVSSHGCQLLPWTQHSPHTRLRRSGRCDLFQKKDYVRTCIMNNGVGYRGTMATTVGGLPCQAWSHKFPNDHKYTPTLRNGLEENFCRNPDGDPGGPWCYTTDPAVRFQSCGIKSCREAACVWCNGEEYRGAVDRTESGRECQRWDLQHPHQHPFEPGKFLDQGLDDNYCRNPDGSERPWCYTTDPQIEREFCDLPRCGSEAQPRQEATTVSCFRGKGEGYRGTANTTTAGVPCQRWDAQIPHQHRFTPEKYACKDLRENFCRNPDGSEAPWCFTLRPGMRAAFCYQIRRCTDDVRPQDCYHGAGEQYRGTVSKTRKGVQCQRWSAETPHKPQFTFTSEPHAQLEENFCRNPDGDSHGPWCYTMDPRTPFDYCALRRCADDQPPSILDPPDQVQFEKCGKRVDRLDQRRSKLRVVGGHPGNSPWTVSLRNRQGQHFCGGSLVKEQWILTARQCFSSCHMPLTGYEVWLGTLFQNPQHGEPSLQRVPVAKMVCGPSGSQLVLLKLERSVTLNQRVALICLPPEWYVVPPGTKCEIAGWGETKGTGNDTVLNVALLNVISNQECNIKHRGRVRESEMCTEGLLAPVGACEGDYGGPLACFTHNCWVLEGIIIPNRVCARSRWPAVFTRVSVFVDWIHKVMRLG
For B1, the proliferation rate entry is “significantly increased proliferation rate”.
